Assay results published in US9289500B2, “Saccharide-peptide hydrogels” (The Regents of the University of California, priority 2013, dated 2016).
Bridges are numbered along the chain shown (N, C = ends). Where no end group is shown, it is not given here. The star is where a group is joined. Acm = CC(=O)NC*

Columns and labels:
IFN-γ = biological target: T1, IFN-γ (Homo sapiens, UniProt P01579); details: cited from earlier work
T1 sequence (P01579 24-161 limits assumed): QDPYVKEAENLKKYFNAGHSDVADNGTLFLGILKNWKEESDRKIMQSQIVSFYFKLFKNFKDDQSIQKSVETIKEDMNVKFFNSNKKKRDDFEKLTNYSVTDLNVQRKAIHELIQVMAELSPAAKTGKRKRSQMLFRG

TNF-α [1] = biological target: TNF-α (Homo sapiens, UniProt P01375); details: cited from earlier work
Chain of TNF-α (Homo sapiens, UniProt P01375) (P01375 77-233 limits assumed, species assumed): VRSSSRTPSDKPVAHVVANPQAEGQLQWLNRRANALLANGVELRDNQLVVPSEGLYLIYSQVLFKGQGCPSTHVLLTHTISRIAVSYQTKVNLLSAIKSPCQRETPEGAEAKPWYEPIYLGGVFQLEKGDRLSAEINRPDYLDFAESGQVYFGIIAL

[2] = tested on: Peripheral blood mononuclear cells (PBMC); test: In vitro biocompatibility: stimulation assay of PBMC, cytokine mRNA; assay type: cell-based, LEW rat; details: IFN-γ, CXCL1, IL6, GMCSF mRNA levels
Protocol: In Vitro Biocompatibility Assay of SP Hydrogel by Stimulation Assay of Peripheral Blood Mononuclear Cells (PBMC). PBMC from a normal LEW rat were isolated using Histopaque (Sigma-Aldrich, St. Louis, Mo.). 1×10^6 Cells were incubated with either 0.5 μL phosphate buffered saline (PBS), 0.5 mg vicryl suture, 0.5 mg hydrogel, 0.5 mg VS-polymer, 0.5 mg Cys-polymer, or 5 μg of LPS for 20 hours at 37° C. Differences in Ct between the target and control (Actb) mRNA (ΔCt) were used to quantify the relative level for each sample's mRNA expression.
Ex vivo biocompatibility of soluble polymers and SP hydrogel: An SP hydrogel was formed by in situ crosslinking by mixing a cysteine-functionalized (Cys-polymer) and a vinyl sulfone-functionalized (VS-polymer) saccharide-peptide copolymer under mild conditions, according to protocols presented in Chawla et al., Biomacromolecules (2011) 12:560-567, and Chawla et al., Biomaterials (2012) 33:6052-6060, which are incorporated herein in their entirety. […] The mRNA expression of inflammatory cytokines released by PBMC, including TNF-α (killer cell), IFN-γ (T-cell activation), CXCL1 (IL-8 analog, recruiter), IL6 (killer cell), and GMCSF (antigen presentation) was assessed to detect any immune stimulatory effect.

TNF-α [3] = test: TNF-α mediated PUMA mRNA up-regulation in islets; assay type: cell-based; details: human islets
From the text: PUMA and INS Pre-mNRA as markers for islet health in response to cytokine insults. Inflammation mediated proinflammatory cytokines, including Tumor necrosis factor (TNF)-α, Interleukin(IL)-1β, Interferon (IFN)-γ, play an important role on β cell death, leading to primary graft nonfunction. […] Elevated PUMA mRNA by TNF-α or the TNF-α+ and IFN-γ combination correlated with decreased islet function, as indicated by decreased preproinsulin (INS) pre-mRNA expression (r=−0.45, p<0.001) assessed by the single islet gene expression assay (RT-PCR). TNF-α receptor blocker, Etanercept, abolished TNF-α mediated PUMA mRNA up-regulation in human islets. PUMA mRNA and INS pre-mRNA expressions are used herein as markers for islet health under cytokine insults.

Substance: AYC(acm)RDGKIGPPKLDIRKEEKQI (AYC(Acm)RDGKIGPPKLDIRKEEKQI) [antagonizing peptide for IFN-γ; acm: acetamidomethyl]
- antagonism of IFN-γ (IFN-γ): potent antagonists

Substance: YCWSQYLCY (disulfide 2-8 (inferred)) [antagonizing peptide for TNF-α]
- antagonism of TNF-α (TNF-α [1]): potent antagonists

Substance: lipopolysaccharide [LPS]
- stimulatory effect / mRNA response compared to LPS [2]: highest stimulatory effect

Substance: Etanercept
- TNF-α mediated PUMA mRNA up-regulation (TNF-α [3]): abolished
